The text below walks through data of patent US20230346919A1.

The target of this test is SARS-CoV-2 spike SΔ21 displayed on VSV-eGFP-SARS-CoV-2-SΔ21 particles (SARS-CoV-2 isolate Wuhan-Hu-1) (UniProt P0DTC2). The test can be described thus: cell-based or functional assay.

With “human ACE2-Fc (hACE2 residues 1-615, HRV-3C site, human IgG1 Fc) (from UniProt Q9BYF1 18-615) (Fc fusion)”, the EC50, inhibition of VSV-SARS-CoV-2-SΔ21 infection (GRNT, Vero E6 cells) turned out to be 29 mg/L.
